Assay results from patent US20240425567A1.

Assays:
[1] = target: antigen of the binding ELISA (not given); test: binding ELISA relative to reference standard; 25 C inverted, 2 months
[2] = target: antigen of the binding ELISA (not given); test: binding ELISA relative to reference standard; 2 to 8 C inverted, 6 months
[3] = target: antigen of the binding ELISA (not given); test: binding ELISA relative to reference standard; 25 C inverted, 0.5 month
[4] = target: antigen of the binding ELISA (not given); test: binding ELISA relative to reference standard; 40 C inverted, 0.5 month
[5] = target: antigen of the binding ELISA (not given); test: binding ELISA relative to reference standard; 2 to 8 C inverted, 12 months
[6] = target: antigen of the binding ELISA (not given); test: binding ELISA relative to reference standard; 40 C inverted, initial
[7] = target: antigen of the binding ELISA (not given); test: binding ELISA relative to reference standard; 25 C upright, 6 months
[8] = target: antigen of the binding ELISA (not given); test: binding ELISA relative to reference standard; 2 to 8 C inverted, 3 months
[9] = target: antigen of the binding ELISA (not given); test: binding ELISA relative to reference standard; 2 to 8 C upright, initial
[10] = target: antigen of the binding ELISA (not given); test: binding ELISA relative to reference standard; 25 C inverted, 3 months
[11] = target: antigen of the binding ELISA (not given); test: binding ELISA relative to reference standard; 25 C upright, initial
[12] = target: antigen of the binding ELISA (not given); test: binding ELISA relative to reference standard; 2 to 8 C inverted, initial
[13] = target: antigen of the binding ELISA (not given); test: binding ELISA relative to reference standard; 40 C inverted, 1 month
[14] = target: antigen of the binding ELISA (not given); test: binding ELISA relative to reference standard; 2 to 8 C inverted, 1 month
[15] = target: antigen of the binding ELISA (not given); test: binding ELISA relative to reference standard; 25 C inverted, 1 month
[16] = target: antigen of the binding ELISA (not given); test: binding ELISA relative to reference standard; 25 C inverted, initial

B1: ADI-58125 (antibody, human IgG1, lambda, V domains shown)
VH: EVQLVESGGGLVKPGGSLRLSCAASGFTFSSYYMNWVRQAPGKGLEWVSSISEDGYSTYYPDSLKGRFTISRDSAKNSLYLQMNSLRADDTAVYYCARDFSGHTAWAGTGFEYWGQGTLVTVSS
VL: QSVLTQPPSVSGAPGQRITISCTGSSSNIGAGYDVHWYQQLPGTAPKLLIYGSSSRNSGVPDRFSGSKSGTSASLAITGLQAEDEADYYCQSYDSSLSVLYTFGTGTKVTVLG
**Q.** What does the source list for B1?
**A.** Binding ELISA, % of reference standard activity (% of reference standard activity) [1]: 111; Binding ELISA, Reference Standard activity % (% of reference standard activity) [1]: 111; Binding ELISA, % of reference standard activity (% of reference standard activity) [2]: 108; Binding ELISA, % of reference standard activity (% of reference standard activity) [3]: 109; Binding ELISA, Reference Standard activity % (% of reference standard activity) [3]: 109; Binding ELISA, % of reference standard activity (% of reference standard activity) [4]: 99; Binding ELISA, Reference Standard activity % (% of reference standard activity) [4]: 99; Binding ELISA, % of reference standard activity (% of reference standard activity) [5]: 93; Binding ELISA, % of reference standard activity (% of reference standard activity) [6]: 114; Binding ELISA, Reference Standard activity % (% of reference standard activity) [6]: 114; Binding ELISA, % of reference standard activity (% of reference standard activity) [7]: 91; Binding ELISA, % of reference standard activity (% of reference standard activity) [8]: 111; Binding ELISA, % of reference standard activity (% of reference standard activity) [9]: 114; Binding ELISA, % of reference standard activity (% of reference standard activity) [10]: 94; Binding ELISA, % of reference standard activity (% of reference standard activity) [11]: 114; Binding ELISA, Reference Standard activity % (% of reference standard activity) [11]: 114; Binding ELISA, % of reference standard activity (% of reference standard activity) [12]: 114; Binding ELISA, % of reference standard activity (% of reference standard activity) [13]: 94; Binding ELISA, Reference Standard activity % (% of reference standard activity) [13]: 94; Binding ELISA, % of reference standard activity (% of reference standard activity) [14]: 101; Binding ELISA, % of reference standard activity (% of reference standard activity) [15]: 102; Binding ELISA, Reference Standard activity % (% of reference standard activity) [15]: 102; Binding ELISA, % of reference standard activity (% of reference standard activity) [16]: 114; Binding ELISA, Reference Standard activity % (% of reference standard activity) [16]: 114
